The values that follow come from paper PMC11087509, “Multimodal binding and inhibition of bacterial ribosomes by the antimicrobial peptides Api137 and Api88” (Nature Communications, 2024).

The target in this test is purified E. coli 30S ribosomal subunit (E. coli (endogenous in MRE600)). The test is described as follows: fluorescence polarisation; cf-labeled peptide (10 µL of 40 nmol/L) added to a 2-fold dilution series (22 steps, 10 µL) of pure 70S ribosome, 50S or 30S subunit; ribosome preparation buffer (20 mmol/L HEPES-KOH, 6 mmol/L MgCl2, 30 mmol/L NH4Cl, pH 7.6); 28 ± 1 °C, 90 min; apparent Kd (average over at least two or three sites).

[ ]: non-standard residue; d: D form.

B1: cf-Onc112 (5(6)-carboxyfluorescein-labeled Onc112, …rIYNr-NH2) (peptide)
peptide: {5(6)‑carboxyfluorescein}-VDKPPYLPRPRPPR[dR]IYN[dR]-NH2
For the molecule B1, the fold weaker binding than to the 50S subunit was determined as 23 fold.
